Test results reported in publication PMC11334519.

Key:
[1] = biological target: 3×FLAG-ORF66; experiment: pull-down
[2] = biological target: 6×Myc-tagged ORF24 BD [1–400 aa]; experiment: pull-down
[3] = 293T cells cotransfected, lysates pulled down with S-protein-agarose capturing 2×S-ORF34, parent: 1.00

Substance | ratio to parent [1, 3] | ratio to parent ([1]; parent: 1.000) | ratio to parent [2, 3] | ratio to parent ([2]; parent: 1.000)
2×S-tagged KSHV ORF34 WT C170A | 0.05 | 0.057 | 0.32 | 0.325
2×S-tagged KSHV ORF34 WT C175A | 0.04 | 0.039 | 0.34 | 0.345
2×S-tagged KSHV ORF34 WT C256A |  |  | 0.11 | 0.109
2×S-tagged KSHV ORF34 WT C259A |  |  | 0.03 | 0.027
2×S-tagged KSHV ORF34 WT D154A | 0.28 | 0.282 | 0.51 | 0.512
2×S-tagged KSHV ORF34 WT E41A; T42A | 1.03 | 1.03 | 0.88 | 0.877
2×S-tagged KSHV ORF34 WT F47A | 1.09 | 1.09 | 0.86 | 0.859
2×S-tagged KSHV ORF34 WT G165A | 0.02 | 0.022 | 0.68 | 0.68
2×S-tagged KSHV ORF34 WT G182A | 0.36 | 0.359 | 1.28 | 1.29
2×S-tagged KSHV ORF34 WT L188A; L189A |  |  | 0.5 | 0.503
2×S-tagged KSHV ORF34 WT Q264A; N265A |  |  | 0.67 | 0.665
2×S-tagged KSHV ORF34 WT R234A | 0.77 | 0.775 | 0.74 | 0.74
2×S-tagged KSHV ORF34 WT S168A | 0.97 | 0.969 | 0.94 | 0.94
2×S-tagged KSHV ORF34 WT V50A | 1.11 | 1.11 | 0.86 | 0.861
2×S-tagged KSHV ORF34 WT W160A | 0.29 | 0.289 | 0.47 | 0.473
2×S-tagged KSHV ORF34 WT Y194A | 0.003 | 0.003 | 0.64 | 0.645
2×S-tagged KSHV ORF34 WT Y215A | 0.16 | 0.167 | 1.02 | 1.02
2×S-tagged KSHV ORF34 WT Y310A | 0.17 | 0.173 | 0.96 | 0.956
